Test: yeast display, Sf9 membrane polyspecificity reagent, FACS + sequencing; frameworks hold sequencing errors
Procedure, shortened: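 Nanobodies came from a synthetic yeast display library in Saccharomyces cerevisiae BJ5465, induced with galactose for 36–48 hours and stained for 1 hour at 4 °C with 10% biotinylated, detergent-solubilized Sf9 membrane reagent. Cells were enriched on streptavidin microbeads and then FACS-sorted, with low and high (top ~1%) gates set on anti-HA fluorescence for expression and streptavidin fluorescence for reagent binding. Each polyreactivity label reflects the gate a clone came from. Genes were amplified by colony PCR, sequenced by MiSeq 2 × 250 and filtered by CDR length.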

| Sequence | polyreactivity (PSR sort gate) |
| --- | --- |
| QVQLEESGGGLVQAGGSLRLSCAASGRTFNRYVMGWYRQAPGKERELVAAITWRGGSTYYADSVKGRFTISRDNAKTSVYLQMNSLKPEDTAVYYCAARYSGGYSVDAFDYWGQGTQVTVSS | high polyreactivity |
| QVQLEESGGGLVQAGGSLRLSCAASGRTFSRNAMGWYIQAPGKERELVAAISQRGVSTYYADSVKGRFTISRDNAMNTVYLQMNSLKPEDTAVYYCNTRGTYRYDYWGQGTQVTVSS | low polyreactivity |
| QVQLEESGGGLVQAGGSLRLSCAASGRTFVLNVMGWYRQAPGKERELVATISGVGSTNYADSVKGRFTISRDNAKNTVYLQMNSLKPEDTAVYYCAKDPHVGRWWDLYSPYYSWGQGTQVTVSS | low polyreactivity |
| QVQLEESGGGLVQAGGSLRLSCAASGRTFVPYAMGWYRQAPGKERELVAAINSGGSTYYADSVKGRFTISRDNAKNTVYLQMNSLKPEDTAVYYCAAEYWNSRFSYAYGYWGQGTQVTVSS | high polyreactivity |
| QVQLEESGGGLVQAGGSLRLSCAASGRTFVRYAMGWYRQATGNERELVAAFSLRGGRTYYADSVKGRFTISRDNAKNTVYLQMNSLKPEDTAVYYCNSRYYIQREYDYWGQGNQVTVSS | high polyreactivity |
| QVQLEESGGGLVQAGGSLRLSCAASGRTFYPYAMGWYRQAPGKEREFVARITWSGGRTYYADSVKGRFTISRDNAKNTVYLQMNSLKPEDTAVYYCAARGHDAVIATRYDYWGQGTQVTVSS | high polyreactivity |
| QVQLEESGGGLVQAGGSLRLSCAASGRTIQDNAMGWYRQAHGKERELVAAIRDNGGSTYYADSVKGRFTISRDNAKNTVFLQMNSLKPEDTAVYYCAADQGTGSYDYWGQGTQVTVSS | low polyreactivity |
| QVQLEESGGGLVQAGGSLRLSCAASGRTSYSNAMGSYRQAPGQERELVAGITYRGGSTYYADSVKGRFTISRDNAKNTVYLQMNSLKPEDTAVYDCAVKYSWQSRFNYWGQGTQVTVSS | high polyreactivity |
| QVQLEESGGGLVQAGGSLRLSCAASGSIFEYYAMGWYRPAPGKERELVAAISSGGPTYYADSVKGRFTISRDNAKNTVYLQMNSLKPEDTAVYYCNADLWYPDYAYWGQGTQLTVSS | low polyreactivity |
| QVQLEESGGGLVQAGGSLRLSCAASGSIFFWYAMGWSRQAPGKERELVAAISSSGSTNYADSVKGRFTISRDNAKNTVYLQMNSLKPEDTAVYYCATRKYVYYPVQYEFWGQGTQVTVSS | high polyreactivity |
| QVQLEESGGGLVQAGGSLRLSCAASGSIFGLYAMGWYRQAPGKERELVAAINQSGGSTSYADSVKGRFTISRDNAKNTVYLQMNSLKPEDTAVYYCNRVRLNTEGFDYWGQGTQVTVSS | low polyreactivity |
| QVQLEESGGGLVQAGGSLRLSCAASGSIFGYNAMGWYRQAPGKERELVAAINVDGGRTYYADSVKGRFTISRDNAKNTVYLQMNSLTPEDTAVFYCAAAYRLQVGRREYWGQGTQVTVSS | high polyreactivity |
| QVQLEESGGGLVQAGGSLRLSCAASGSIFGYYAMGWYRKATGKEREFVADINSRDGGTYYADSVKGRFTISRDNAKNTVYLQMNSLKPEDTAVYYCAAPYYAAWVAVAIEYDYWGQGTQVTVSS | low polyreactivity |
| QVQLEESGGGLVQAGGSLRLSCAASGSIFRRNVMGWYRQAPGKERELVADINYSGGSTFYADSVKGRFTISRDNAKNTVYLQMNSLKPEDTAVYYCKSSPYREKHGYWGQGTQVTVSS | low polyreactivity |
| QVQLEESGGGLVQAGGSLRLSCAASGSIFRWNAMGWSRQAPGKERELVAAISSGTSTNYADSVKGRFTISRDNAKNTVYVQMNSQKPEDTAVYYCAARGRKNQRRYGYWGQGTQVTVSS | low polyreactivity |
| QVQLEESGGGLVQAGGSLRLSCAASGSIFRYYAMGWYRQAPGKERELVAVITRGGSTYYADSVKGRFTISRDNAKNTVYLQMNSLKPEDTAVYYCAADYWPAGLDRGYWGQGTQVTVSS | low polyreactivity |
| QVQLEESGGGLVQAGGSLRLSCAASGSIFVGYAMGWYRQAPGKEREFVAAINYRGGSTFYADSVKGRFTISRDNAKNTVYLQMNSLKPEDTAVYYCAARYSGNRGVPKGYRYNYWGQGTQVTVSS | low polyreactivity |
| QVQLEESGGGLVQAGGSLRLSCAASGSIFVGYDMGWYRQAPGKVWELVAAITSSGVGSTYYADSVKGRFTISRDNAKNTVYLQMNSLKPEDTAVYYCAARTSLWWFLKYDYWGEGTQVTVSS | low polyreactivity |
| QVQLEESGGGLVQAGGSLRLSCAASGSIFYSNAMGWYRQAPGKERELVAAISVSGVSTYYADSVKGRFTISRDNAKNTVYLQMNSLKPEDTAVYYCAAQYVTRGLYLVAFFSYDYWGQGTQVTVSS | low polyreactivity |
| QVQLEESGGGLVQAGGSLRLSCAASGSILRVNVMVWYRQAPGKERELVAAITSGGRTYYADSVKGRFTISRDNAKNTVYLQMNSLIQEDTAVYYCAAKFFRNTYSYGMDYWGQGTQVTVSS | high polyreactivity |
| QVQLEESGGGLVQAGGSLRLSCAASGSISVRYTMGSYRQAPGKERELVAGISRSGGTTYADSVKGRFTISRDNGKNTVYLQMNSLKQEDTAVYYCAAELRRGSGRSYKGYYYWGQGTQVSVSS | low polyreactivity |
| QVQLEESGGGLVQAGGSLRLSCAASGSISYNNVMGWYRQAPGKERELVARIRSGGSTYYADSVKGRFTISRDNAKNTVYLLMNSLKQEDTAVYYCAARTKRQAGSYGYWGQGTQVTVSS | high polyreactivity |

| Sequence | polyreactivity (PSR sort gate) |
| --- | --- |
| QVQLEESGGGLVQAGGSLRLSCAASGSTFCYYPMGWYRQAPGKEREFVAAISSSGGSTYYADYVKGRFTISRDNAKNTVYFQMNSLKPEDTAVYYCARVGFPGFYWGQGTEVTVSS | high polyreactivity |
| QVQLEESGGGLVQAGGSLRLSCAASGSTFEGYAMGWYRQAPGKERELVAVISSGSITKYADSVKGRFTISRDNAKNTVFLQINSLKPEDTAVYYCARKGGIIFASYLLGGYWGQGTQVTVSS | low polyreactivity |
| QVQLEESGGGLVQAGGSLRLSCAASGSTFEVYAMGWYRQAPGKERELVAVINVSDGSTYYADSVKGRFTISRDYAKNTVYLQMNSMKPEDTAVYYCADYLYNRPYQLTGYYDGYGYWGQGTQVTVSS | low polyreactivity |
| QVQLEESGGGLVQAGGSLRLSCAASGSTFFPYAMGWYRQAPGKERELVAGISSDGGTSYADSVKGRFTISRDTAKNTVYLQMNSLKPEDTAVYYCNARAVNVRDYINYDYWGQGTQVTVSS | low polyreactivity |
| QVQLEESGGGLVQAGGSLRLSCAASGSTFGNYAKGWYRQAPGKERELVAAITATGGRTYYADSVKGRFTISRDNAKNTVYLQMNSVKPEDTAVYYCAAGYRTGGDSGDYWGQGTQVTVSS | high polyreactivity |
| QVQLEESGGGLVQAGGSLRLSCAASGSTFGPNTMGRYRQAPGKERELVAAISRAGRTYYADSVKGRFTISRDNAKNTVYLQINSLKPEDTAVYYCNAGRSYHWRAGREYDYWGQGTQVTVSS | low polyreactivity |
| QVQLEESGGGLVQAGGSLRLSCAASGSTFGWYAMGWYRQAPGKERELVASITSGGRTNYADSVKGRFTISRDNAKNTVYLQMNCLKPEDTAVYYCAKRVYGSNSLYDYWGQGTQVTVTS | low polyreactivity |
| QVQLEESGGGLVQAGGSLRLSCAASGSTFGYYAMGWYRKAPGKERELVAAISRSGGSTYYADSVKGRFTISRDNAKNTVYLQMNSLKPEDTAVYYCAAKVYGAVYHYYYWGQGTQVTVSS | high polyreactivity |
| QVQLEESGGGLVQAGGSLRLSCAASGSTFGYYTMGWYRQAPGKERELVAAISWSGGSTYYADSVKGRFTISRDNAKNTVYLQMNSLKPEDTAVYYCAALGYTYKYYSYYWGQGTQVTVSS | high polyreactivity |
| QVQLEESGGGLVQAGGSLRLSCAASGSTFKLYTMGWYRQAPGKEREFVATITSGGRTNYADSVKGRFTISRDNAKNTVYLQMNSLKPEDTAVYYCAATWLRVKYRFKGYDYWGQGTQVTVSS | high polyreactivity |
| QVQLEESGGGLVQAGGSLRLSCAASGSTFRAYAMGWYRQAPGKERELVAAITSTTDTYYADSVKGRFTISRDNAKNTVYLQMNSLKPEDTAVYYCASVWVWTYDYWGQGTQVTVSS | low polyreactivity |
| QVQLEESGGGLVQAGGSLRLSCAASGSTFRDNALGWYRQAPGKETELVAGITRGGITNYADSVKGRFTISRDNAKNTVYLQMNSLIPEDTAVYYCAAEVTGTYYDYDYWGQGTQVTVSS | low polyreactivity |
| QVQLEESGGGLVQAGGSLRLSCAASGSTFTFNAMGWYRQAPGKERELVAVISSGGSTYYAESVKGRFTISRDNAKNTFYLQMNSLKPEDTAVYYCNKVYGYFGQYYLRYNYWGQGTQVTVSS | low polyreactivity |
| QVQLEESGGGLVQAGGSLRLSCAASGSTFTVNGMGWYRQAPGKERELVAAIDGGDGSTYYADSVKGRFTISRDNAKNTVYLQMNSLKPEDTAVYYCAADTPCFTQYGYWGQGTQVTVSS | low polyreactivity |
| QVQLEESGGGLVQAGGSLRLSCAASGSTFVEYAMGWYRQAPGKERELVAAITASGGSTYYADSVKGRFTISRDNAKNTVYLQMNSLKPEDTAVYYCAVTTRSRGFRDIDYWGQGTQVTVSS | low polyreactivity |
| QVQLEESGGGLVQAGGSLRLSCAASGSTFVYYARGWYRQAPGKERELVAAITTRGGSTYYADSVKGRFTISRDNAKNTVYLQMNSLKPEDTAVYYCATKWPVYPTGYDYWGQVTQVTVSS | low polyreactivity |
| QVQLEESGGGLVQAGGSLRLSCAASGSTFYTNAMGWYRQAPGKERELVAAISASVGSTYYADSVKGRFTISRDNAKNTVYLQMNSLKPEDTAVYYCAADVWASRRYDYWGQGTQVTVSS | low polyreactivity |
| QVQLEESGGGLVQAGGSLRLSCAASGSTIHDNDMGWYRQAPGKERELVAAISWSGGSTTYADSVKGRFTISRDNAKNTVYLQMNSLKPEDTAVYYCAADWYYWGFIFDYWGQGTQVTVSS | high polyreactivity |
| QVQLEESGGGLVQAGGSLRLSCAASGSTIRYNAMGWSRQAPGKERELVAGISVRGGSTYYADSVKGRFTISRDNAKNTVYLQMNSLKPEDTAVYYCATRSPYSYPNLYYWGQGTQVTVSS | high polyreactivity |
| QVQLEESGGGLVQAGGSLRLSCAASGSTISENTMGWYRQAPGKERELVDAISFSGGSTYYADSVKGRFTISRDIAKNTVFLQMNSLKPEDTAVYYCRRFSSSPKLALGEYDFWGQGTQVTVSS | low polyreactivity |
| QVQLEESGGGLVQAGGSLRLSCAASGSTVGIYAMGWYRPAPGKERELVAAISSRGSTYYADSVKGRFTISRDNAKNTVYLQMNSLKPEDTAVYYCAAGYAWYNYWGQGTQVTVSS | high polyreactivity |

From the nanobody polyreactivity screen of Harvey et al. (2022)
